These results are taken from US20210290727A1 (UNIVERSITY OF MARYLAND BALTIMORE, published 2021).

One test addresses T1, FLAG-tagged TSC2 (UniProt P49815 1-1807, limits assumed).
T1 construct: also called pRK7-FLAG-TSC2; not shown: FLAG tag
As to the kind of experiment: NanoSPD (nanoTRAP) filopodia co-accumulation in COS-7 cells.

The target in a further test is T2, FLAG-tagged TSC1 (UniProt Q92574 1-1164).
T2 construct: also called pRK7-FLAG-TSC1; not shown: FLAG tag
T2 sequence (looked up): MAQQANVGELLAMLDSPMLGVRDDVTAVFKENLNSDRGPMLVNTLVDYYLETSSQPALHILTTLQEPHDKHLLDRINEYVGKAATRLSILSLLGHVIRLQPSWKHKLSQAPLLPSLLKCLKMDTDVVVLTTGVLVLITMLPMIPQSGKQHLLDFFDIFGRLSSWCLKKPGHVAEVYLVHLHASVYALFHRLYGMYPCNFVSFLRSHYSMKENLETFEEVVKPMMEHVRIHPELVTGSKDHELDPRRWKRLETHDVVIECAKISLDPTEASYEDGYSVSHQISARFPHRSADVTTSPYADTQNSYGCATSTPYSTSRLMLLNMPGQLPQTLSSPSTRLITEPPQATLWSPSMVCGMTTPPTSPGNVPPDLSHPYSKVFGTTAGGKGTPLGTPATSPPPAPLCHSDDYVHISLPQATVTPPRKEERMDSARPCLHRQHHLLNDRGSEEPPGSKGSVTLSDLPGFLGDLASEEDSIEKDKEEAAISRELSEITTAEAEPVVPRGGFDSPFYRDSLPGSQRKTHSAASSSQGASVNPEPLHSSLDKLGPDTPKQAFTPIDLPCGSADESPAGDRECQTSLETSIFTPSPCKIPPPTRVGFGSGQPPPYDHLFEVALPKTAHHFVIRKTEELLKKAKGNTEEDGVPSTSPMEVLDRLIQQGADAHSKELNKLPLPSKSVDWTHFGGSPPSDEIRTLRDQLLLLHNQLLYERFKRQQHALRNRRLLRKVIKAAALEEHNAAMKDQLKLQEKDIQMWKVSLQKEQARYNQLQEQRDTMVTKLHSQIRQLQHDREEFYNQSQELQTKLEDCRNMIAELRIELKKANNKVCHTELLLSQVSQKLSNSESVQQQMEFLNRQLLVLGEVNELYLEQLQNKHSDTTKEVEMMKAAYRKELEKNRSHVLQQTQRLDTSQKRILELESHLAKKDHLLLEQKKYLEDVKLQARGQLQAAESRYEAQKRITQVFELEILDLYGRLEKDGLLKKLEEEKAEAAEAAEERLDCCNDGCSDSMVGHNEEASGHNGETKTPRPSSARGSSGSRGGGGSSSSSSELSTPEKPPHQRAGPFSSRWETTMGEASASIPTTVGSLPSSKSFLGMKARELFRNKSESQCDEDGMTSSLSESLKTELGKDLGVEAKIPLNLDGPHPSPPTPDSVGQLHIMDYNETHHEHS
The test is described as above.

T1 sequence (P49815 whole entry): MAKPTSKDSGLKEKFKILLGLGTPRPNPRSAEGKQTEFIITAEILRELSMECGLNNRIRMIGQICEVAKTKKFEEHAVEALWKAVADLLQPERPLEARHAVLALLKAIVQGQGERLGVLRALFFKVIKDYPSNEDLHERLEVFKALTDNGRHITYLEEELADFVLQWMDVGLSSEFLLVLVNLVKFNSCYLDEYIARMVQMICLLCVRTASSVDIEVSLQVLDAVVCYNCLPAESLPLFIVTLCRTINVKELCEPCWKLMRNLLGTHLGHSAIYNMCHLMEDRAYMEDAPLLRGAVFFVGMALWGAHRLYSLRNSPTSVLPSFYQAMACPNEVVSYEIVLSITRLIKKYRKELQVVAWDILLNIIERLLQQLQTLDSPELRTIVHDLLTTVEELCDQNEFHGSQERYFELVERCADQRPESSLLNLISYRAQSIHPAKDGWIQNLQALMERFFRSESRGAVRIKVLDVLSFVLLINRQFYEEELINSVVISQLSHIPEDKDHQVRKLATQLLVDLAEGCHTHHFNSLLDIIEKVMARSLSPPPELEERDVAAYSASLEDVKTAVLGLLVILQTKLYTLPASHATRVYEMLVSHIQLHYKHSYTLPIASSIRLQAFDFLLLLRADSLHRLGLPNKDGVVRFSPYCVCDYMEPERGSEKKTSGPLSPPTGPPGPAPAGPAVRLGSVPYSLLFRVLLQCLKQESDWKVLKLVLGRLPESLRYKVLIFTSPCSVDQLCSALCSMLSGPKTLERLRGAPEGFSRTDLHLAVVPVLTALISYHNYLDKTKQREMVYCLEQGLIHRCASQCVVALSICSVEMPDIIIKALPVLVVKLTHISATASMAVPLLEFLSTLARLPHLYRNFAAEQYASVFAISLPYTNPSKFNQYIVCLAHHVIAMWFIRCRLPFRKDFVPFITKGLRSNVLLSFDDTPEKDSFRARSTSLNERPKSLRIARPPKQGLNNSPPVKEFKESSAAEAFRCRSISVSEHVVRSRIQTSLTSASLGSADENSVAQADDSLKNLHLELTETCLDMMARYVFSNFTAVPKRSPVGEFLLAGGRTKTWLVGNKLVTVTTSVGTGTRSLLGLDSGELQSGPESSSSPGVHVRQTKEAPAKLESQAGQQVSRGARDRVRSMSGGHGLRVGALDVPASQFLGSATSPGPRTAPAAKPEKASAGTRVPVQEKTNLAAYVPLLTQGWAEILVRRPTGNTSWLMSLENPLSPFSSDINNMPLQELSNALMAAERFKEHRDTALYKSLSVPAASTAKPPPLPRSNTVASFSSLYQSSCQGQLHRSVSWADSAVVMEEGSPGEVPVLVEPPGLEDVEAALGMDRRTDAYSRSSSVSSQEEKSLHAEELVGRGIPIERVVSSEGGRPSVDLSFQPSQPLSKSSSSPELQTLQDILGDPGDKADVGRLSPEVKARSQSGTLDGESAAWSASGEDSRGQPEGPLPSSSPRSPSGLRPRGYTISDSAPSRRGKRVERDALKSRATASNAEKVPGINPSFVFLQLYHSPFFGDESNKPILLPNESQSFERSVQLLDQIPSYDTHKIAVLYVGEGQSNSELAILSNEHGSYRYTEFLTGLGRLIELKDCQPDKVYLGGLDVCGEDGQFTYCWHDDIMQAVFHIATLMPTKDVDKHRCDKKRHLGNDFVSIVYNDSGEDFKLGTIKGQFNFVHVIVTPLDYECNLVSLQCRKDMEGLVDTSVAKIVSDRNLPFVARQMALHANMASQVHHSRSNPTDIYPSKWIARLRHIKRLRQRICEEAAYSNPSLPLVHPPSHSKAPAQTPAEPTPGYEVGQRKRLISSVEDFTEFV
Protocol for FLAG-tagged TSC1: (§1) 60-70% confluent COS-7 cells or RPE-J cells were fixed with 4% PFA for 15 min at RT and permeabilized with 0.2% Triton X-100 in PBS for 15 min at room temperature, followed by blocking with 10% normal goat serum (NGS) in PBS for at least 30 min at RT. Primary antibodies were diluted in 3% NGS-PBS and incubated overnight at 4° C., followed by the incubations with the indicated goat secondary antibodies. […] A Zeiss 710 laser scanning confocal microscopy system was used for image acquisition, with step size of 0.5 μm.
(§2) 60-70% confluent Cos7 cells in 6-well plates for nanoTRAP were transfected with Lipofectamine 2000 (3:1 ratio) with 1 μg plasmid construct each. For nanoTRAP assay, cells were split 1:10 ratio in glass coverslips to allow for filopodia formation. 24 hrs later, cells were fixed and processed as above.
Protocol for FLAG-tagged TSC2: as §1, §2

B1: CIB2-eGFP (other)
chain: MGNKQTIFTEEQLDNYQDCTFFNKKDILKLHSRFYELAPNLVPMDYRKSPIVHVPMSLIIQMPELRENPFKERIVAAFSEDGEGNLTFNDFVDMFSVLCESAPRELKANYAFKIYDFNTDNFICKEDLELTLARLTKSELDEEEVVLVCDKVIEEADLDGDGKLGFADFEDMIAKAPDFLSTFHIRI
notes: Expressed in COS-7 cells as bait of the NanoSPD (nanoTRAP) assay; also called hCIB2-eGFP; GFP-hCIB2; not shown: eGFP tag
B1: the binding result with FLAG-tagged TSC2 and in the test with FLAG-tagged TSC1 was “no binding” each time.
